The source of these data is patent US20100330095A1 (U3 PHARMA, published 2010).

The test deals with T1, human receptor tyrosine kinase AXL transcript variant 1 (human, UniProt P30530 26-894).
T1 construct: Overexpressed on RatI-AXL cl.2 and NIH3T3-AXL cl.7 fibroblasts (pLXSN-hAXL); endogenous on human cancer cell lines and HUVEC in the functional assays; also called hAXL; human AXL
T1 sequence: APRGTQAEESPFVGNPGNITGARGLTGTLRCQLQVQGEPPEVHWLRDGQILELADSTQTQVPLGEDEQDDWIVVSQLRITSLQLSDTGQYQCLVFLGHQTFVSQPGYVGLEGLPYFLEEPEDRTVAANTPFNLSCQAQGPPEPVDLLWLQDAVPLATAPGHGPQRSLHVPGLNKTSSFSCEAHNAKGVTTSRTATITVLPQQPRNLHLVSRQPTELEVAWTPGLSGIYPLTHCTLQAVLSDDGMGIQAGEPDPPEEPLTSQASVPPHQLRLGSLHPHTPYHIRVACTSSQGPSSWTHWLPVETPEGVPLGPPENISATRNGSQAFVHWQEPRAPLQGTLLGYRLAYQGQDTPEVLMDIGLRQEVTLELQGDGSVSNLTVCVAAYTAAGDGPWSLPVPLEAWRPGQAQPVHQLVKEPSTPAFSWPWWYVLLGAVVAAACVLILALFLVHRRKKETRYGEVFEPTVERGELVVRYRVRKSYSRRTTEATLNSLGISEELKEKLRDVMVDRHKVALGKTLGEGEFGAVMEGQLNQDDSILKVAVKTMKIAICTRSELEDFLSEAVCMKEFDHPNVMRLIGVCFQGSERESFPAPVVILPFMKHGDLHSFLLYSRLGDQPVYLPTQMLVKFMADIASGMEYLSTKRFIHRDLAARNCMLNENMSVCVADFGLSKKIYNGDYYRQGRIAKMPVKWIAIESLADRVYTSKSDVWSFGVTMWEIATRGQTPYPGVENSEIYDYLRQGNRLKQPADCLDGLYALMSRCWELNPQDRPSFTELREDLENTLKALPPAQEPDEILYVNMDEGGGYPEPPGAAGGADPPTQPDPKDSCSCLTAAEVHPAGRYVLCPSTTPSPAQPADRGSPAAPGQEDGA
Description: FACS Scatchard (apparent KD) on human AXL overexpressing NIH3T3 cells. Here is the method:
Human AXL overexpression NIH3T3 cells were harvested by incubation with 10 mM EDTA in PBS and resuspended at 6 million cells per ml in FACS buffer (PBS pH 7.4, 3% FCS, 0.1% NaN₃). […] Antibody binding was allowed to proceed for 2 hours on ice. Then, cells were washed twice with 250 μl FACS buffer per well, and resuspended in 200 μl of secondary antibody (anti-rat-PE; Jackson) diluted 1:50 in FACS buffer. After 45 minutes of incubation, cells were again washed twice in FACS buffer and resuspended in […] PBS for FACS analysis. Analysis was carried out on a Beckman-Coulter FACS FC500. To determine the apparent affinity constant KDapp, mean fluorescence values were plotted against the ratio of mean fluorescence and the corresponding antibody concentration ([M]).

B1: ch11D5-IgG2 (antibody, V domains shown)
VH: EVQLQESGPGLVKPSQSLSLTCSVTGYSITSNYWGWIRKFPGNKMEWIGHITNSGNTTYNPSLKSRISISRDTSRNQFFLQLNSVTTEDTATYYCAKGAFDYWGQGVMVTVSS
VL: DIQMTQSPSSMSTSLGDRVTITCRASQDIGNYLSWFQQKVGKSPRRMIYGAIKLAVGVPSRFSGSRSGSDYSLTISSLESEDMAIYYCLQYIQFPLTFGSGTKLELKR
notes: chimeric rat/human IgG2 kappa, expressed in HEK 293 cells; also called chn11D5 IgG2
Turning to B1, the Kd amounted to 900 pM.

B2: ch11B7-IgG2 (antibody, V domains shown)
VH: EVQLQESGPGLVKPSQSLSLTCSVTGYSITSNYWGWIRKFPGDKMEWMGYITYSGSTSYNPSLKSRISITRDTSKNQFFLQLNSVTSEDTATYYCAITTFYYWGQGVMVTVSS
VL: DIQMTQAPSSLPASLGDRVTITCRASQDIGNYLRWFQQKPGKSPRLMISGATNLAAGVPSRFSGSRSGSDYSLTISSLESEDMADYYCLQSKESPWTFGGGTKLELKR
notes: chimeric rat/human IgG2 kappa, expressed in HEK 293 cells; also called chn11B7 IgG2
As for B2, the Kd amounted to 600 pM.
